Assay [1] has as its target human AXL extracellular domain transiently expressed on CHO-S cells (human) (UniProt P30530). Briefly: flow cytometry, serial dilution on CHO-S cells transiently expressing human AXL ECD, AF647 anti-human IgG secondary, GeoMean (RL1-H). A general note: In flow cytometry, cells or beads pass a laser one at a time.
Assay [2] has as its target cynomolgus AXL extracellular domain transiently expressed on CHO-S cells (cynomolgus). Briefly: flow cytometry, serial dilution on CHO-S cells transiently expressing cynomolgus AXL ECD, AF647 anti-human IgG secondary, GeoMean (RL1-H).
Assay [3] has as its target His-tagged human AXL extracellular domain (recombinant) (human) (UniProt P30530). Briefly: SPR classical sandwich assay (IBIS MX96): 100 nM analyte over AXL-His ECD held by surface-captured 22883; white cell = sandwiching.
The target is the same in assay [4]. Put plainly: SPR classical sandwich assay (IBIS MX96): 100 nM analyte over AXL-His ECD held by surface-captured 22995; white cell = sandwiching.
The target is the same in assay [5]. Briefly: SPR classical sandwich assay (IBIS MX96): 100 nM analyte over AXL-His ECD held by surface-captured 23203-1; white cell = sandwiching.
For assay [6] the target is unchanged. Put plainly: SPR classical sandwich assay (IBIS MX96): 100 nM analyte over AXL-His ECD held by surface-captured 10G5 analogue; white cell = sandwiching.
The target is the same in assay [7]. Put plainly: SPR classical sandwich assay (IBIS MX96): 100 nM analyte over AXL-His ECD held by the surface-captured Control antibody (f2); white cell = sandwiching.
Assay [8] shares this target. Briefly: SPR classical sandwich assay (IBIS MX96): 100 nM analyte over AXL-His ECD held by surface-captured YW327.6S2 IgG1-LALA analogue; grey cell = blocked (self).

Sequence of YW327.6S2 IgG1-LALA analogue (Genentech) (antibody) (VH): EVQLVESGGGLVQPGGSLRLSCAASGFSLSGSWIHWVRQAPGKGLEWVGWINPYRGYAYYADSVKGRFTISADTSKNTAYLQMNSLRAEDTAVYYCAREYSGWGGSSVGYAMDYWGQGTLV
Sequence of YW327.6S2 IgG1-LALA analogue (Genentech) (antibody) (VL): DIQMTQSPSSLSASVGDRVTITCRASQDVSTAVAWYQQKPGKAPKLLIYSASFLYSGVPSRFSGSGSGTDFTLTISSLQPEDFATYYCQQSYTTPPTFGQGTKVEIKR
Sequence of His-tagged human AXL extracellular domain (recombinant) (human) (P30530 26-451): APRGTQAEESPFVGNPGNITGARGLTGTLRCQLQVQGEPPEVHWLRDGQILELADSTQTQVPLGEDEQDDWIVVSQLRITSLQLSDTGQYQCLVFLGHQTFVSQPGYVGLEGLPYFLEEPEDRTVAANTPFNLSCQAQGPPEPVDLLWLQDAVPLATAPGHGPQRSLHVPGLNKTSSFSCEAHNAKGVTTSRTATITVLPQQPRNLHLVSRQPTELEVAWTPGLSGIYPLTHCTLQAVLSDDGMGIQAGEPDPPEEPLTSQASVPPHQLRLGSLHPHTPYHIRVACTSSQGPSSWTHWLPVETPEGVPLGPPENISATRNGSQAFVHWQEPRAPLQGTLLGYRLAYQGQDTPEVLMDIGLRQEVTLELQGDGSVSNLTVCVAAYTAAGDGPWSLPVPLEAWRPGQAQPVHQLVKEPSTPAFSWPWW
Sequence of human AXL extracellular domain transiently expressed on CHO-S cells (human) (P30530 26-451 limits assumed): as the sequence (P30530 26-451) above

As usually defined, the EC50 (read off the curve) is the concentration at which the effect is half-maximal. Low values mean greater potency, high ones weaker potency. Regarding “10G5 IgG1-LALA analogue (BerGenBio) (antibody)”, the EC50 (read off the curve) in assay [1] is 0.006 µg/mL; in assay [2] it was 0.008 µg/mL.

For the substance “Ax225 IgG1-LALA analogue (Chugai) (antibody)”, the results for the EC50 (read off the curve) in assay [1] and in assay [2] were 0.06 µg/mL and 0.05 µg/mL, respectively.

As to “YW327.6S2 IgG1-LALA analogue (Genentech) (antibody)”, the normalized SPR sandwich response in assay [3] stood at 3.9; in assay [4] it was 1.1; in assay [5], 1.1; in assay [6], 1.2; in assay [7] it was 1.3; in assay [8] it was 0.
